The results in this text go back to paper PMC10119292, “Characterization of a fold in TANGO1 evolved from SH3 domains for the export of bulky cargos” (Nature Communications, 2023).

For assay [1], the target named is T1, human Otoraplin, residues 18-128 (human, UniProt Q9NRC9 18-128).
T1 construct: Otoraplin, human, UniProt Q9NRC9, residues 18-128; [U-15N]-enriched for the NMR titrations; also called Otoraplin (18-128); not shown: His-tag, N-terminal, cleaved
T1 sequence (looked up): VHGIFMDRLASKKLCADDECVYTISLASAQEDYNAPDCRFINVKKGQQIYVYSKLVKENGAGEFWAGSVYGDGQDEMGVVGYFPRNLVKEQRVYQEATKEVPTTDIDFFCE
Nature of the assay: NMR titration; 1H-15N HSQC series of [U-15N]-Otoraplin with SOS1 (1149-1158) at protein:peptide ratios 1:0.5 to 1:50; PBS pH 7.4, 298 K; two-dimensional lineshape analysis (TITAN), two-state binding model. As to conditions: both partners purified.

Assay [2] deals with Collagen type IV from human placenta (human) (UniProt P08572). Nature of the assay: MST; RED-NHS-labeled collagen type IV constant at 25 nM, unlabeled partner varied (16 1:1 dilutions); 10 mM HEPES pH 7.2, 150 mM NaCl, 0.005% Tween-20, 15 µM BSA; 25 °C; 60% LED power, high MST power, MST-on time 1.5 s.
The target of assay [3] is human TANGO1 cargo-recognition (MOTH) domain, residues 21-131 (human, UniProt Q5JRA6-4 21-131, disulfides Cys38-Cys43 and Cys61-Cys124; cis-Pro83; His-tag removed with TEV (PDB 7R3M entity has one extra N-terminal Met); 15N or 15N/13C labelled for NMR). Nature of the assay: NMR titration; 1H-15N HSQC series of 208 µM [U-15N]-hsTANGO1(21-131) with peptide 132-151 at ratios 1:0.25 to 1:6; 25 mM HEPES pH 7.4, 150 mM NaCl, 298 K; two-dimensional lineshape analysis (TITAN), two-state binding model. As to conditions: both partners purified.
Sequence of human TANGO1 cargo-recognition (MOTH) domain, residues 21-131 (Q5JRA6 other isoform, or with tags, fused parts or gaps): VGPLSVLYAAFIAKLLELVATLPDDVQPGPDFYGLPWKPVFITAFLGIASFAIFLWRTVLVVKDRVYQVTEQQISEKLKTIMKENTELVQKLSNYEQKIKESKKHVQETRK

B1: SOS1 (1149-1158), class II PPII helix peptide (peptide, UniProt Q07889 1149-1158, looked up)
peptide: VPPPVPPRRR
notes: SOS1, residues 1149-1158; also called class II ligand; PPII class II ligand; source: synthetic peptide
For B1, in assay [1], the Kd (usually the concentration at which binding is half-saturated) was 1300 µM and the koff (commonly a measure of how fast the partners let go of each other) worked out at 350000 s⁻¹.

B2: human TALI MOTH domain, residues 23-123 (domain or fragment)
chain: TKLLADLKKCGDLECEALINRVSAMRDYRGPDCRYLNFTKGEEISVYVKLAGEREDLWAGSKGKEFGYFPRDAVQIEEVFISEEIQMSTKESDFLCLLGVS
In assay [2], B2 gave a dissociation constant (Kd) of 11.4 µM.

B3: human Otoraplin, residues 18-128 (domain or fragment)
chain: T1 sequence (looked up)
In assay [2], B3 gave a dissociation constant Kd of 9.9 µM.

B4: synthetic peptide of human TANGO1 residues 132-151 (predicted C-terminal helix) (peptide, UniProt Q5JRA6 132-151, looked up)
peptide: FHNYNVEELLGFLELYNSAA
notes: TANGO1, human, UniProt Q5JRA6, residues 132-151; also called C-terminal helix peptide; peptide corresponding to residues 132–151; source: synthetic peptide
With B4, in assay [3], the Kd was found to be 321 µM and the koff came to 1100 s⁻¹.

B5: Drosophila melanogaster TANGO1 cargo-recognition domain, residues 30-139 (domain or fragment)
chain: TLTWAATLSDKRLCADPKCEQIISMGIAKITYAIGGEGLISFKINSPIRVLSKSAGSNMQLWGVDINGRRGYANKDFIMEKKILVRDKDLLYEVPVVGPGSPVQSVETPV
Take B5: in assay [2], the Kd is 6.9 µM.

B6: human TANGO1 MOTH domain with C-terminal helix, residues 21-151 (domain or fragment)
chain: PGQLDPSTGRRFSEHKLCADDECSMLMYRGEALEDFTGPDCRFVNFKKGDPVYVYYKLARGWPEVWAGSVGRTFGYFPKDLIQVVHEYTKEELQVPTDETDFVCFDGGRDDFHNYNVEELLGFLELYNSAA
Regarding B6, in assay [2], the Kd was 3.3 µM.
